Holding throughout (test): fluorescence polarisation competition
(Fluorescence polarisation rises when a labelled molecule tumbles more slowly, as on binding a larger partner.)

One experiment deals with T1, P3.
T1 chain: Ac-RLYGFKW-NH2

For a further experiment, the target named is T2, P5C4 (linker 1-8 via C4; not fully specified (N-terminus, C-terminus); also: structure of constraint C4 not given here in text).
T2 chain: CRLYGFKC

The target in another experiment is T3, P2.
T3 chain: Ac-LYGFKW-NH2

In the next experiment the target is T4, P5C7 (linker 1-8 via C7; not fully specified (N-terminus, C-terminus); also: structure of constraint C7 not given here in text).
T4 chain: CRLYGFKC

For the next experiment, the target named is T5, P5C5 (linker 1-8 via C5; not fully specified (N-terminus, C-terminus); also: structure of constraint C5 not given here in text).
T5 chain: CRLYGFKC

The target of another experiment is T6, P4.
T6 chain: Ac-RLYGFKWH-NH2

The target of the next experiment is T7, P7C8 (bridge 1-8; not fully specified (N-terminus, C-terminus, bridges); printed as C_C8_RLYGFKW_C8_; also: structure of constraint C8 not given here in text).
T7 chain: CRLYGFKW

The target in the next experiment is T8, P1.
T8 chain: Ac-RLYGFK-NH2

Bridges are numbered along the chain shown (N, C = ends). Where no end group is shown, it is not given here. C4 = constraint linking the two cyclising residues; C5 = constraint linking the two cyclising residues; C7 = constraint linking the two cyclising residues

A word on the IC50: it is the concentration needed to halve the response being measured. Low values mean greater potency in that assay, high ones weaker potency in that assay.

B1: CK2α (protein)
chain: MSGPVPSRARVYTDVNTHRPREYWDYESHVVEWGNQDDYQLVRKLGRGKYSEVFEAINITNNEKVVVKILKPVKKKKIKREIKILENLRGGPNIITLADIVKDPVSRTPALVFEHVNNTDFKQLYQTLTDYDIRFYMYEILKALDYCHSMGIMHRDVKPHNVMIDHEHRKLRLIDWGLAEFYHPGQEYNVRVASRYFKGPELLVDYQMYDYSLDMWSLGCMLASMIFRKEPFFHGHDNYDQLVRIAKVLGTEDLYDYIDKYNIELDPRFNDILGRHSRKRWERFVHSENQHLVSPEALDFLDKLLRYDHQSRLTAREAMEHPYFYTVVKDQARMGSSSMPGGSTPVSSANMMSGISSVPTPSPLGPLAGSPVIAAANPLGMPVPAAAGAQQ
For the molecule B1, the IC50 was determined as 22.5 µM in the experiment with P3; 54.6 µM with P5C4; 137 µM in the experiment with P2; 40 µM with P5C7; 28.9 µM with P5C5; 16.7 µM with P4. The half-maximal inhibitory concentration (IC50) with P7C8 is 15.6 µM; in the experiment with P1 it was above 500 µM.
